tested on: HBEGF locus; format: cell-based, human; settings: high-throughput screen of dXR repression of the HBEGF gene; abundance of each domain in the library before and after diphtheria toxin selection; HEK293T cells

Molecule	Log2 (fold change)
DOMAIN_18646 (protein, listed as Monodelphis domestica) VKEVVTLQDVAVDFTWEEWRLLSPPQKELYREVMLENAQNLLSVGLPAPLEDVLSYLEQRKGPWMLEQKRLRSCCPGEIRL	2.4678
DOMAIN_17775 (protein, listed as Camelus dromedarius) MPQGSVSFKDVTVDFTQEEWQQLDSAQKALYRDVMLENYCHFVSVGFHMTKPDMIHKLEQGKELWTTGRIFPSRSYLGESV	2.6595
DOMAIN_18693 (protein, listed as Camelus dromedarius) GQESVSFKDVTVDFTWDEWLQLTGMQRTLYRDVMLENYSHLVSVGCCITKPEVIFKLEQGEEPWPREGELPGRRDPDRSQE	3.0179
DOMAIN_17180 (protein, listed as Zalophus californianus) FQDSVTFEDVAVRFSSGEWQCLTRAQRHLYADVMLENYGNMISVGFAVPKPPLISHLEQGAEPCVQDLQDGGFLSCSFPVS	2.945
DOMAIN_19388 (protein, listed as Physeter macrocephalus) MTFEDVAVEFTRWEWGQLDPTQKDVYREVMLENFKNLASLGFPMSKPYVICRLEEGEEPCILEREISTGAPADWERRRQAK	3.2831
DOMAIN_17234 (protein, Delphinapterus leucas) PENGVTFEDIALYFSWEEWKLLDEAQRRLYHDVMLENFALISSLGVWSGEENVEASFEQSVSVVMSQVRTSKEPSSSQKTH	2.0152
DOMAIN_18979 (protein, listed as Pongo sp.) CYQDSVTFDDVAVDFTQEEWTLLDSTQRSLYSDVMLENYKNLATVGGQIIKPSLISWLEQEESKTVQGGVLQGRKTQWRGT	2.0034
DOMAIN_17474 (protein, listed as Monodelphis domestica) QVPVTFEDLAVRFSAEEWHLLEEWQREFHRDVMRENYEMLVSLGTAQLLPLSAFLSLTEPQEDMGDNGCSDGEWERPGGGL	2.683
DOMAIN_17689 (protein, Cercocebus atys) MAFEDVAVYFSQEEWGLLDTAQRALYRRVMLENFTLVTSLGLSTSRPHVVIQLERGEEPWVPSGKDMTLARNTYRRLNAGE	3.6469
DOMAIN_18459 (protein, listed as Monodelphis domestica) GQEEVAFKDVAVDFTREEWRLLSPPQKELYKEVMLENIRNLLSVGLPAPPEDMISYLEQREAPWMLEQEGLRSYSPGEEIR	3.1352
DOMAIN_17534 (protein, Cercocebus atys) SQGSVSFKDVTVDFTQEEWQQLDPAQKALYRDVMLENYCHFVSVGFHMTKPDMIRKLEQGEELWTQRIFPSYSYLAEDGKT	2.9374
DOMAIN_18726 (protein, listed as Myotis davidii) PNALVTFQDVFVDFSPEELASLSAAQRRLHREVTLENYRNLVSLGYQFPRPDIITQLEEEESSAMEEDSNTKTGPDWETGP	2.9362
DOMAIN_17548 (protein, listed as Neomonachus schauinslandi) VQGSMSFEDVIVEFTQDEWQYMSPAQRILYRDVMLENYSHLISVGYCTTKPEMIFKLEQGEEPWSLEEEFLNQRYPGYFSV	2.8002
DOMAIN_18923 (protein, listed as Callithrix jacchus) ASGTLTFDDVALYFSEQEWEILEKWQKQMYKQEMKTNYETLDSLGYAFSKPDLITWMEKGRMLLISDQGRLHKTKRTAGPP	2.2053
DOMAIN_17801 (protein, listed as Pongo sp.) EPGAVSFADVAVYFCREEWGCLRPAQRALYRDVMRETYGHLSALGIGGNKPALISWVEEEAELWDPAAQDPEVAKCQTEAD	2.9733
DOMAIN_17497 (protein, listed as Monodelphis domestica) AQEVVSFKDVAVDFTREEWRLLSPPQKELYKEVMLENARNLLSVGLPAPSEEVISYLEQREAPWILEQEGLRNCCSEGEIR	2.8088
DOMAIN_17264 (protein, Vicugna pacos) CEVSVSFEDVTVDFSREEWQHLDPAQRRLYRDVTLENYSHLCSVGYQVPKPEVIFKLEQGEGPWTLEEETPHQSCSDEDMG	3.0866
DOMAIN_18670 (protein, listed as Neomonachus schauinslandi) LQVSVSFEDVTVDFSREEWQHLDPAQRRLYRDVTLENYSHLHSVGYQVPKPEVIFKLEQGEGPWTLEGETPHQGCSDEAIG	3.1792

same assay, conditions: high-throughput screen of dXR repression of the HBEGF gene; abundance of each domain in the library before vs after diphtheria toxin selection; listed domains met p-value <0.01 and log2(fold change) >2

Molecule	Log2 (fold change)
DOMAIN_21277 (protein, listed as Aotus trivirgatus) PQDLMTFDDVAVEFTQWEWGQLNPAQKDLYREVMLENFRNLTLLGLLVSKPYMICQLEEGGEPFMVNTEISVGAHSDWERR	2.7115
DOMAIN_21095 (protein, listed as Trichechus manatus) LKASVSFKDVAVELTQEEWQHMGPAQRTLYRDVMLENYSHLVSVGYCIFKPEVIFKLEQGEQPWFLEQEFSNQSYPEDYNI	2.5003
DOMAIN_20336 (protein, listed as Panthera pardus) SQGTVSFKDVAVNFTQEEWQYLDLPQRDLYKDVMLENYTNLISVGYQTTKPSVIHKLEQGEEPWMVEREIPNWSYAEETWQ	2.3293
DOMAIN_19563 (protein, listed as Papio anubis) AQMLVTFKDVAVTFTQEEWRQLDLTQRTLYREVMLETCGLLVSLGHRVPKPELVHLLEHGQELWTVKRGLSDPTCAGDRTQ	2.5522
DOMAIN_19699 (protein, listed as Otolemur garnettii) LQGSVSFKDVTVDFTQEEWQQLDPAQKALYRDVMLENYCHFVSVGFHMTKPDMIRRLEQGEELWTERIFPGQSYLEEDGKA	2.8474
DOMAIN_20025 (protein, listed as Carlito syrichta) LQGSVSFKDVTVDFTQEEWHQLNPAQKALYRDVMLENYCHFISVGFHMTKPDMIRKLEQGEELWTERIFSRQSHLEEDGKA	2.2451

same assay, conditions: high-throughput screen of dXR repression of the HBEGF gene; change in abundance of each domain in the library before and after diphtheria toxin selection

Molecule	Log2 (fold change)
DOMAIN_143 (protein, listed as Pan paniscus) MAAMPLKAQYQEMVTFEDVAVHFTKTEWTGLSPAQRALYRSVMLENFGNLTALGYPVPKPALISLLEGGDMAWGLEAQDDP	3.63
DOMAIN_92 (protein, listed as Pan paniscus) FGNLLGVPWAQGNSALPEGLLSFKDISMEFTWDEWQLLDSTQKYLYRDVILENYHNLISVGYHGTKPDLIFKLEQGEDPWI	2.1475
DOMAIN_31643 (protein, listed as Micrurus lemniscatus) FREVSVYFSEEEWSWLDPDQKALYWEVMLENHRNMASLGDDGQENKDSYELLQGITARDTMETSAIEMEVERYKEKQSDDWNQESSSCTDDSV	3.8782

Source: patent US12551573B2, “Compositions and methods for the targeting of PCSK9” (Scribe Therapeutics Inc., priority 2022, dated 2026)
